Patent US20110179509A1, “Use of Afamin for Treating Fertility Disorders” (VITATEQ BIOTECHNOLOGY GMBH, priority 2008, published 2011)
“Also recorded” adds a separate entry of the source.

Columns and labels:
[1] = human afamin binding alpha- and gamma-tocopherol, radioligand assay; read-out: binding-dissociation constant; cited from earlier work
[2] = tested on: infertile male chimeric animals; assay: afamin substitution via intraperitoneal minipump in infertile male chimeric afamin knock-out mice: fertility and testes histology; type: in vivo, mouse
Excerpt: Chimeric mice from ES cells carrying the disrupted afamin allele were generated by microinjection of 10-15 ES cells into 3.5-day-old embryos of the C57B1/J mouse strain. Chimeric animals were mated to C57B1/J or 129/Sv partners, respectively, to establish the afamin mutant allele on a C57B1/J×129/Sv hybrid and on a 129/Sv inbred genetic background. Loss of afamin mRNA and protein was checked by Northern and Western blot analysis.
In order to confirm the role of afamin for fertility, infertile male chimeric animals were substituted with recombinantly produced murine afamin via minipump, which was implanted intraperitonially and released afamin continuously into the organism for 28 days (which corresponds to the time required for spermiogenesis in mice). Control mice received physiological saline solution instead of afamin. At weekly time intervals, plasma was obtained from substituted mice. […] Offspring were, however, exclusively wild-type not carrying the recombinant allele.

[3] = afamin plasma concentration by ELISA during afamin substitution; type: in vivo, mouse; settings: infertile male chimeric mice, intraperitoneal minipump, continuous release for 28 days, plasma at weekly intervals
Excerpt: In order to analyse the afamin concentrations in the partial knock-out mice, an ELISA kit for quantifying afamin in mouse plasma was developed. For that purpose, a polyclonal antibody against mouse afamin was obtained by immunising rabbits with purified recombinant murine afamin. Recombinant expression of murine afamin was achieved by stable transfection of CHO cells with mouse afamin cDNA followed by purification from serum-free culture supernatants. The obtained polyclonal anti-mouse afamin antibody was purified by affinity chromatography on a sepharose column to which recombinant afamin was covalently bound. This affinity-purified antibody was used to coat ELISA-plates and, after conjugation with horse-radish peroxidase, also for detection using an appropriate substrate reaction. Purified recombinant afamin (quantified by amino acid compositional analysis) served as standard. With this ELISA, an afamin plasma concentration in the range of 6-10 mg/l was measured in wild-type mice which is roughly only 10% of respective plasma levels in humans (3).
In order to confirm the role of afamin for fertility, infertile male chimeric animals were substituted with recombinantly produced murine afamin via minipump, which was implanted intraperitonially and released afamin continuously into the organism for 28 days (which corresponds to the time required for spermiogenesis in mice). […]

| Molecule | Kd [1] | histological examination of testes, spermiogenesis ([2]; after afamin substitution and sacrifice) | fertility (mating with female wild-type mice) ([2]; intraperitoneal minipump, 28 days substitution) | plasma concentrations of afamin [3] |
| --- | --- | --- | --- | --- |
| afamin: 75-kDa human serum glycoprotein with vitamin E-binding properties, member of the albumin gene family (protein, UniProt P43652 22-599, looked up) Afamin: LPTQPRDIENFNSTQKFIEDNIEYITIIAFAQYVQEATFEEMEKLVKDMVEYKDRCMADKTLPECSKLPNNVLQEKICAMEGLPQKHNFSHCCSKVDAQRRLCFFYNKKSDVGFLPPFPTLDPEEKCQAYESNRESLLNHFLYEVARRNPFVFAPTLLTVAVHFEEVAKSCCEEQNKVNCLQTRAIPVTQYLKAFSSYQKHVCGALLKFGTKVVHFIYIAILSQKFPKIEFKELISLVEDVSSNYDGCCEGDVVQCIRDTSKVMNHICSKQDSISSKIKECCEKKIPERGQCIINSNKDDRPKDLSLREGKFTDSENVCQERDADPDTFFAKFTFEYSRRHPDLSIPELLRIVQIYKDLLRNCCNTENPPGCYRYAEDKFNETTEKSLKMVQQECKHFQNLGKDGLKYHYLIRLTKIAPQLSTEELVSLGEKMVTAFTTCCTLSEEFACVDNLADLVFGELCGVNENRTINPAVDHCCKTNFAFRRPCFESLKADKTYVPPPFSQDLFTFHADMCQSQNEELQRKTDRFLVNLVKLKHELTDEELQSLFTNFANVVDKCCKAESPEVCFNEESPKIGN | 18 µM | – | – | – |
| recombinantly produced murine afamin: murine afamin expressed by stable transfection of CHO cells with mouse afamin cDNA, purified from serum-free culture supernatants (protein, UniProt O89020 22-608, looked up) Afamin: LPTKPQDVDHFNATQKFIDENTTYLAIIAFSQYVQEASFDEVETLVKVMLDYRDRCWADNTLPECSKTANDAIQDMLCDMEGLPQKHNFSHCCGKAGFPRRLCFFYNKKANVGFLPPFPTLDPEEKCQAYKNNSESFLHLYMYEVARRNPFVFAPVLLAVAAWFEEAATTCCEQQQKATCFQAKAAPITQYLKASSSYQRNVCGALIKFGPKVLNSINVAVFSKKFPKIGFKDLTTLLEDVSSMYEGCCEGDVVHCIRSQSQVVNHICSKQDSISSKIKVCCEKKTLEREACIINANKDDRPEGLSLREAKFTESENVCQERDSDPDKFFAEFIYEYSRRHPDLSTPELLRITKVYMDFLEDCCSRENPAGCYRHVEDKFNETTQRSLAMVQQECKQFQELGKDTLQRHFLVKFTKAAPQLPMEELVSLSKEMVAALTTCCTLSDEFACVDNLADLVLGELCGVNTNRTINPAVDHCCKTDFAFRRHCFEHLKADTTYELPSVSALVSALHTDWCQPRKEDLQNKKHRFLVNLVKWMPGITDEEWLCLFTKFTAAREECSEVQEPESCFSPESSKTGDESQATEKQR | – | restoration of normal testes histology, spermiogenesis; also recorded: completely normalised testes tissue and spermiogenesis | restoration of normal testes histology, spermiogenesis and fertility; also recorded: resulted in several pregnancies and births | immediately rose to physiological levels and stayed constant during the infusion period |
